Measured values published in PMC8299219 (Cell, 2021).
Like-named read-outs stand apart in the source and are kept apart here.

Assays:
[1] = biological target: T1, SARS-CoV-2 S ectodomain trimer, prefusion-stabilized, 2P variant (Wrapp et al., 2020) (SARS-CoV-2, Wuhan-Hu-1, UniProt P0DTC2, stabilised); assay: ELISA
[2] = biological target: T1, SARS-CoV-2 S ectodomain trimer, …

B1: mAb 4A8 (published; Chi et al., 2020) (antibody, V domains shown)
VH: QVQLVESGAEVKKPGASVKVSCKVSGYTLTELSMHWVRQAPGKGLEWMGGFDPEDGETMYAQKFQGRVTMTEDTSTDTAYMELSSLRSEDTAVYYCATSTAVAGTPDLFDYYYGMDVWGQGTTVTVSS
VL: EIVMTQSPLSSPVTLGQPASISCRSSQSLVHSDGNTYLSWLQQRPGQPPRLLIYKISNRFSGVPDRFSGSGAGTDFTLKISRVEAEDVGVYYCTQATQFPYTFGQGTKVDIK
[1]
  binding result: binds

B2: C81E12 (antibody, V domains shown)
VH: QVQLVESGGGVVQPGRSLRLSCAASGFTFSSYGMHWVRQAPGKGLEWVAVIWYDGSNKYYADSVKGRFTISRDNSKNTLYLQMNSLRAEDTAVYYCARDLRLGDHFDYWGQGTLVTVSS
VL: SYELTQPPSVSVSPGQTARITCSGDALPKKYAYWYQQKSGQAPVLVIYEDSKRPSGIPERFSGSSSGTMATLTISGAQVEDEADYYCYSTDSSGNHRVFGGGTKLTVL
[2]
  binding result: binds

B3: G32M1 (antibody, V domains shown)
VH: QVQLVESGGGVVQPGRSLRLSCVASGFTFSSYGMHWVRQAPGKGLEWVAVIWYDGSNKYYADSVKGRFTISRDNSKNTLYLQMNSLRAEDTAVYYCAREYRSSWYNWFDSWGQGTLVTVSS
VL: SYELTQPPSVSVSPGQTARITCSGDALPKQYAYWYQQKPGQAPVMVIYKDSERPSGIPERFSGSSSGTTVTLTISGVQAEDEADYYCQSADSSGTSYVFGTGTKVTVL
[2]
  binding result: binds
